Experimental data reported in patent EP2848693A1, “Concatenation of halogenated alkenyl diphosphate derivatives” (LANXESS Deutschland GmbH, priority 2013, dated 2015).

What was measured:
[1] = molecular target: T1, E. coli Undecaprenyldiphosphatsynthase (EcUPPS) (Escherichia coli, UniProt P60472); test: MTP phosphate detection assay (diphosphate release, BIOMOL Green), substrate kinetics; type: biochemical; conditions: for rel. kcat Km^-1: relative to natural substrate FPP (100 %)
T1 construct: made in house; host or cells: E. coli
T1 sequence (P60472 1-253): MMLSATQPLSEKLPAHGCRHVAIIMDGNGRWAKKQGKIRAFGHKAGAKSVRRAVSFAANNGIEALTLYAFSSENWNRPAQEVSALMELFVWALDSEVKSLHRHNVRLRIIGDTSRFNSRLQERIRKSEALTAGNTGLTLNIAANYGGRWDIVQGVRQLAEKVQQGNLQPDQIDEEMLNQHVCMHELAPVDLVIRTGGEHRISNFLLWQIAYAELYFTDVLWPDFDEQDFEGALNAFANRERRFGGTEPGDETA
Protocol: (§1) Cis-Prenyltransferasen entlassen während der Reaktion Diphosphat nach jedem Kondensationsschritt. Dies ist der Ansatzpunkt, der gewählt wurde, um unabhängig von der Art des Produktes den Grundumsatz zu detektieren. […] Die Dreifachbestimmungen der Enzymreaktionen wurden mit 100 µL BIOMOL Green™ Detektionsreagenz gestoppt und nach weiteren 20 min in einem Mikrotiterplattenspektrophotometer bei 620 nm gemessen. Zur Kontrolle erfolgte für jede Substratkonzentration eine Messung mit denaturiertem Enzym zu den unterschiedlichen Zeitpunkten um Selbsthydrolyse der Substrate zu berücksichtigen. Zur Quantifizierung wurde eine Pi-Standardkurve in Doppelbestimmung mitgeführt. Die Verdünnung des KPi-Standards erfolgte in Assaypuffer, wurde mit 100 µL BIOMOL Green™ Detektionsreagenz nach Ablauf der Enzymreaktion in den Test-Wells detektiert und zeitgleich nach weiteren 20 min bei 620 nm gemessen. Eine lineare Beziehung zwischen A620 nm und Pi-Konzentration ermöglichte eine Quantifizierung zwischen 80 µM-0 µM Pi.
(§2) Die Bestimmung der FPP-Kinetiken der EcUPPS sowie der ThkCPT erfolgte unter analogen Bedingungen der Bestimmung von IPP. […] Die Enzymreaktion wurde nach 60 s, 120 s, 180 s, 300 s, 600 s, 900 s oder 1200 s durch Zugabe von 100 µL BIOMOL Green™ Detektionsreagenz gestoppt und wie oben beschrieben gemessen.
(§3) Die Assaybedingungen wurden wie in Beispiel 3 beschriebenen gewählt. […] Variation von 500 - 0 µM im Fall der Elongationssubstrate erfolgte konstant mit 10 µM FPP (jedes Homoallyldiphosphat möglich).
(§4) Zur Berechnung der Umsatzraten in nkat·mg^-1 wurde verwendet: ν0 = ((A620-ABlank)⋅1000)/(2⋅m⋅t⋅[E]) [formula] v0 Anfangsgeschwindigkeit der Diphosphathydrolyse (nkat·mg^-1) A620 Absorption bei 620 nm ABlank Absorption der Kontrolle bei 620 nm m Anstieg der Phosphatstandardkurve (µM^-1) t Dauer der Enzymreaktion (s) [E] Enzymkonzentration (mg·L^-1)
(§5) Die Auswertung erfolgte durch nicht-lineare Regression nach der Hill-Gleichung mit Sigma-Plot 11. […] Substratkonzentration (µM) h Hill-Koeffizient

[2] = molecular target: T2, Thermococcus kodakaraensis cis-Prenyltransferase (ThkCPT) (Thermococcus kodakarensis, UniProt Q5JGE1); test: as above; type: biochemical; conditions: elongation substrate varied, starter FPP 10 µM, room temperature
T2 construct: made in house; host or cells: E. coli
T2 sequence (Q5JGE1 1-264): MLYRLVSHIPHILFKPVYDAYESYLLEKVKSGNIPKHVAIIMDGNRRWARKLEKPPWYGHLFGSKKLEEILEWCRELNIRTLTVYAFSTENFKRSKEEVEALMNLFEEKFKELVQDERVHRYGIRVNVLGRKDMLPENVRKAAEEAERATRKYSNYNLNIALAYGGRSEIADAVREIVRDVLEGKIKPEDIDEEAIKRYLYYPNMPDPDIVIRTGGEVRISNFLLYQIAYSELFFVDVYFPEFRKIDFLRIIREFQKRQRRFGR
Protocol: as §1, §2, §3, §4, §5

EcUPPS = molecular target: T3, EcUPPS (Escherichia coli, UniProt P60472); test: Product chain length by HPLC with fluorescent starter substrate 110; type: biochemical; conditions: 10 µM EcUPPS, 110 as starter substrate, HPLC of hydrolysed products
T3 construct: made in house; host or cells: E. coli
Protocol: (§6) Zur Bestimmung der Produktkettenlängen wurden 500 µL Enzymassays in MS-Gläschen durchgeführt. […] Die Extraktion der Polyprenyldiphosphate erfolgte mit 500 µL 1-Butanol. Die Butanolphase wurde in ein neues Glas überführt und unter Stickstoffstrom von dem Lösungsmittel befreit. Die Hydrolyse der Diphosphate zum Polyprenol erfolgte durch Zugabe von 200 µL Hydrolysepuffer (20% Isopropanol, 4,4 Units/mL saure Phophatase aus Kartoffeln, 0,1 % Triton X-100, 50 mM Natriumacetat (pH 4,7)) und wurde über Nacht bei 37 °C inkubiert. Die Polyprenole wurden mit 500 µL nHexan extrahiert und zur weiteren DC- oder HPLC-Analyse vorbereitet. Für DC-Experimente und LC/ESI-MS-Analysen wurde die nHexan-Phase in ein neues Glas überführt, das Lösungsmittel abgedampft und die Produkte erneut in 100 µL nHexan resuspendiert um eine Aufkonzentrierung zu erreichen. Für HPLC-Analysen mit 110 ((2E,6E)-8-O-(N-methyl-2-aminobenzoyl)-3,7-dimethyl-2,6-octandien-1-diphosphat) als Startersubstrat wurde die nHexan-Phase 1:3 verdünnt in das HPLC-System mittels Autosampler injiziert.
Die HPLC-Analyse der Polyprenole erfolgte an einer Anlage von Merck HITACHI D-7000, wobei als stationäre Phase eine YMC-ODS AQ (150 x 4 mm, 5 µm; YMC Europe GmbH, Dinslaken) Säule verwendet wurde. Die Elution erfolgte mit 1 mL·min^-1 und die Detektion bei 210 nm mit einem UV-VIS Detektor: Merck HITACHI L-7420. […]

ThkCPT = molecular target: T4, ThkCPT (Thermococcus kodakarensis, UniProt Q5JGE1); test: as above; type: biochemical, Thermococcus kodakaraensis
T4 construct: made in house; host or cells: E. coli
T4 sequence (Q5JGE1 1-264): T2 sequence (Q5JGE1 1-264)
Protocol: as §6
Die HPLC-Analyse der Polyprenole erfolgte an einer Anlage von Merck HITACHI D-7000, wobei als stationäre Phase eine YMC-ODS AQ (150 x 4 mm, 5 µm; YMC Europe GmbH, Dinslaken) Säule verwendet wurde. Die Elution erfolgte mit 1 mL·min^-1 und die Detektion bei 210 nm mit einem UV-VIS Detektor: Merck HITACHI L-7420. Das Injektionsvolumen betrug dabei 5 µL. Die mobile Phase setzte sich aus Laufmittel A (MeOH/H2O/Isopropanol 12:1:8 (v/v/v)) und Laufmittel B (nHexan/Isopropanol 7:3 (v/v)) zusammen. Die Probenaufgabe erfolgte mittels Autosampler (Merck HITACHI L-7250). [drawing 35]
Zur selektiven und vor allem sensitiven Detektion von Polyprenolen kann ein alternatives, fluoreszierendes Startersubstrat verwendet werden, (2E,6E)-8-O-(N-methyl-2-aminobenzoyl)-3,7-dimethyl-2,6-octandien-1-diphosphat (110). Die Analyse erfolgte wie in Beispiel 6 beschrieben. Dabei wurden 3 µL pro Probe injiziert und die Detektion erfolgte über Fluoreszenz: Ex 352 nm / Em 420 nm wobei das Gerät Merck HITACHI L-7480 als Fluoreszenzdetektor verwendet wurde. […]

[3] = substrate: C=C(Br)CCOP(=O)(O)OP(=O)(O)O; test: MTP phosphate detection assay (diphosphate release, BIOMOL Green), substrate kinetics; type: biochemical, Escherichia coli; conditions: other: elongation substrate varied 500 - 0 µM, starter FPP constant 10 µM; 22.0 °C
Protocol: as §1, §2, §3, §4, §5

[4] = substrate: C=C(C)CCO[P@@](=O)(O)OP(=O)(O)O; test: as above; type: biochemical, Escherichia coli; conditions: other: elongation substrate varied 500 - 0 µM, starter FPP constant 10 µM; 22.0 °C
Protocol: as §1, §2, §3, §4, §5

[5] = substrate: C=C(Cl)CCOP(=O)(O)OP(=O)(O)O; test: as above; type: biochemical, Escherichia coli; conditions: other: elongation substrate varied 500 - 0 µM, starter FPP constant 10 µM; 22.0 °C
Protocol: as §1, §2, §3, §4, §5

[6] = substrate: CC(C)=CCC/C(C)=C/CC/C(C)=C/CC/C(C)=C/COP(=O)(O)OP(=O)(O)O; test: as above; type: biochemical, Escherichia coli; conditions: other: starter substrate varied 80 - 0 µM, elongation substrate IPP constant 150 µM, 22°C
Protocol: as §1, §2, §3, §4, §5

[7] = substrate: CC(C)=CCC/C(C)=C/COP(=O)(O)OP(=O)(O)O; test: as above; type: biochemical, Escherichia coli; conditions: other: starter substrate varied 80 - 0 µM, elongation substrate IPP constant 150 µM, 22°C
Protocol: as §1, §2, §3, §4, §5

[8] = substrate: CNc1ccccc1C(=O)OC/C(C)=C/CC/C(C)=C/COP(=O)(O)OP(=O)(O)O; test: as above; type: biochemical, Escherichia coli; conditions: other: starter substrate varied 80 - 0 µM, elongation substrate IPP constant 150 µM, 22°C
Protocol: as §1, §2, §3, §4, §5

[9] = substrate: C=C(C)CCO[P@@](=O)(O)OP(=O)(O)O; test: purified protein, by the assay type; conditions: other: elongation substrate varied, starter FPP 10 µM, room temperature
[10] = substrate: C=C(Br)CCOP(=O)(O)OP(=O)(O)O; test: MTP phosphate detection assay (diphosphate release, BIOMOL Green), substrate kinetics; type: biochemical, Thermococcus kodakaraensis; conditions: other: elongation substrate varied, starter FPP 10 µM, room temperature
Protocol: as §1, §2, §3, §4, §5

[11] = substrate: C=C(Cl)CCOP(=O)(O)OP(=O)(O)O; test: as above; type: biochemical, Thermococcus kodakaraensis; conditions: other: elongation substrate varied, starter FPP 10 µM, room temperature
Protocol: as §1, §2, §3, §4, §5

[12] = starter substrate varied, IPP constant 150 µM

C=C(Br)CCOP(=O)(O)OP(=O)(O)O [Br-BPP, 3-Brom-3-Butenyldiphosphat]
kcat ([1]; elongation substrate varied, starter FPP 10 µM): 0,0004 s^-1
kcat [2]: 0,0004 s^-1
Kondensationsschritte / Elongationseinheiten (EcUPPS): 2
Kondensationen (Reaktionsprodukte) (ThkCPT; 10 µM ThkCPT, 110 as starter substrate, room temperature 25°C): mehr als zwei Kondensationen

CC(C)=CCC/C(C)=C/CC/C(C)=C/CC/C(C)=C/COP(=O)(O)OP(=O)(O)O [GGPP, Geranylgeranyldiphosphat]
rel. kcat Km^-1 [1]: 76%

CC(C)=CCC/C(C)=C/CC/C(C)=C\COP(=O)(O)OP(=O)(O)O [Z,E-FPP]
rel. kcat Km^-1 [1]: 90%

CNc1ccccc1C(=O)OC/C(C)=C/CC/C(C)=C/COP(=O)(O)OP(=O)(O)O [Substrat 110, (2E,6E)-8-O-(N-methyl-2-aminobenzoyl)-3,7-dimethyl-2,6-octandien-1-diphosphat]
rel. kcat Km^-1 [1]: 4%
Akzeptanz als Startersubstrat der ThkCPT (ThkCPT; 65°C): als Startersubstrat akzeptiert

Farnesyldiphosphat [FPP]
rel. kcat Km^-1 [1]: 100%
Km ([1]; starter substrate varied 80 - 0 µM, elongation substrate IPP constant 150 µM, 22°C): 1.8 µM
kcat [1, 12]: 0,5 s^-1
vmax [1, 12]: 17,9 ± 0,4 nkat/mg

B1: E. coli Undecaprenyldiphosphatsynthase (EcUPPS) (Escherichia coli K-12) (protein)
chain: T1 sequence (P60472 1-253)
notes: made in house; host or cells: E. coli
Km [3]: 6.4 µM
Vmax [3]: 0,02 nkat mg^-1
Km [4]: 6.5 µM
Vmax [4]: 14,4 nkat mg^-1
kcat [4]: 0,4 s^-1
Km [5]: 3.8 µM
Vmax [5]: 0,03 nkat mg^-1
Km [6]: 1.9 µM
Vmax [6]: 14,9 ± 0,3 nkat/mg
kcat [6]: 0,4 s^-1
kcat/Km [6]: 223000 M⁻¹ s⁻¹
Km [7]: 48,8 ± 8,3 µM
Vmax [7]: 11,3 ± 0,7 nkat/mg
kcat [7]: 0,3 s^-1
kcat/Km [7]: 7000 M⁻¹ s⁻¹
Km [8]: 5.6 µM
Vmax [8]: 1,9 ± 0,1 nkat/mg
kcat [8]: 0,1 s^-1
kcat/Km [8]: 11000 M⁻¹ s⁻¹

B2: Thermococcus kodakaraensis cis-Prenyltransferase (ThkCPT) (Thermococcus kodakarensis KOD1) (protein)
chain: T2 sequence (Q5JGE1 1-264)
notes: as for B1
Km [9]: 14.8 µM
Vmax [9]: 2,0 nKat mg^-1
kcat [9]: 0,07 s^-1
Km [10]: 54,0 +/- 11,1 µM
Vmax [10]: 0,01 nKat mg^-1
Km [11]: 21,2+/-2,1 µM
Vmax [11]: 0,01 nKat mg^-1
